Target: recombinant full-length calcium-independent receptor of α-latrotoxin (CIRL) expressed in COS cells (rat)
Sequence (O88917 other isoform, or with tags, fused parts or gaps limits assumed): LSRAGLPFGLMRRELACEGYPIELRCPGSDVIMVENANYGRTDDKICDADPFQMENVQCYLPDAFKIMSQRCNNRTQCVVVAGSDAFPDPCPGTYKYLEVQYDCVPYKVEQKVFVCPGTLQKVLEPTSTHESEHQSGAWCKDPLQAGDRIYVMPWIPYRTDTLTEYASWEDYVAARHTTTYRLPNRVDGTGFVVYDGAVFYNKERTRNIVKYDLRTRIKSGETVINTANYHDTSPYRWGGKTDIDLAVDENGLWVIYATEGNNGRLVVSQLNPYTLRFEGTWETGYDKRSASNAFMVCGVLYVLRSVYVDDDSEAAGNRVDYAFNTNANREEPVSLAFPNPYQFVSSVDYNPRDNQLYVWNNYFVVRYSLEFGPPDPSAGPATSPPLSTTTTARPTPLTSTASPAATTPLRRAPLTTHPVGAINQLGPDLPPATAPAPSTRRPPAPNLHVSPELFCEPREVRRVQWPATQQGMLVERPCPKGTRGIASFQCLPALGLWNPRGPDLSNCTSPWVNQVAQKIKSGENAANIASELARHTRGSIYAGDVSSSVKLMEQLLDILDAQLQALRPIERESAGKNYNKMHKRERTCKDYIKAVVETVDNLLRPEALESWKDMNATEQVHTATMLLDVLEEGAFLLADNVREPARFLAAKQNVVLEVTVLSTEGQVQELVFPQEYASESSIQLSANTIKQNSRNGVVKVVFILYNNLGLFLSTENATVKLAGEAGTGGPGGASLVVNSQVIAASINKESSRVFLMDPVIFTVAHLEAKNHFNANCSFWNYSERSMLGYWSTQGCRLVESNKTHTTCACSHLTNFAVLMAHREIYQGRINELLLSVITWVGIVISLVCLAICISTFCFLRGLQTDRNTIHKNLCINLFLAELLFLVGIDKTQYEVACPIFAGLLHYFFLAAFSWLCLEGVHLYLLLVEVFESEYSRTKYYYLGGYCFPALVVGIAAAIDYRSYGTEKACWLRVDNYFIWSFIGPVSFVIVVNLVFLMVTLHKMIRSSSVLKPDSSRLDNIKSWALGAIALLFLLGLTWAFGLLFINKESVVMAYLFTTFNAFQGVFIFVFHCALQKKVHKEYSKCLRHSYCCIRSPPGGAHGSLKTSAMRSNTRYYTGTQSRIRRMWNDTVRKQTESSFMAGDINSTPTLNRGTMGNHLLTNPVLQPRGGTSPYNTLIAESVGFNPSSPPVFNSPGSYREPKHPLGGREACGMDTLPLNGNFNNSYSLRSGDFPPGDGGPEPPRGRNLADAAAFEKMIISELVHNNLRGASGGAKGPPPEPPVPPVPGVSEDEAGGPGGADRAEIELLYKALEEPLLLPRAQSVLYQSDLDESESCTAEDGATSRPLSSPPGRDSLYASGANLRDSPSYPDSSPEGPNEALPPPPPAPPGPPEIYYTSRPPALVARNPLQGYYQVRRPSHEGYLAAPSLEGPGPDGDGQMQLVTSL

B1: α-latrotoxin (ligand)
chain: EGEDLTLEEKAEICSELELQQKYVDIASNIIGDLSSLPIAGKIAGTIAAAAMTATHVASGRLDIEQTLLGCSDLPFDQIKEVLENRFNEIDRKLDSHSAALEEITKLVEKSISVVEKTRKQMNKRFDEVMKSIQDAKVSPIISKINNFARYFDTEKERIRGLKLNDYILKLEEPNGILLHFKESRTPTDDSLQAPLFSIIEEGYAVPKSIDDELAFKVLYALLYGTQTYVSVMFFLLEQYSFLANHYYEKGYLEKYDEYFNSLNNVFLDFKSSLVGTGTSNNEGLLDRVLQVLMTVKNSEFLGLEKNGVDEMLNEKINLFNKIKEEIEGKQKMTLSETPENFAQISFDKDITTPIGDWRDGREVRYAVQYASETLFSKISHWSDPVSVREKACPTLRMPVDQTRRNVLVFRKFDSSKPQLVGEITPYLSNFIDIDRDLYNAASNPDSAVGFKEFTKLNYDGANIRATFDHGRTVFHAAAKSGNDKIMFGLTFLAKSTELNQPDKKGYTPIHVAADSGNAGIVNLLIQRGVSINSKTYHFLQTPLHLAAQRGFVTTFQRLMESPEININERDKDGFTPLHYAIRGGERILEAFLNQISIDVNAKSNTGLTPFHLAIIKNDWPVASTLLGSKKVDINAVDENNITALHYAAILGYLETTKQLINLKEINANVVSSPGLLSALHYAILYKHDDVASFLMRSSNVNVNLKALGGITPLHLAVIQGRKQILSLMFDIGVNIEQKTDEKYTPLHLAAMSKYPELIQILLDQGSNFEAKTNSGATPLHLATFKGKSQAALILLNNEVNWRDTDENGQMPIHGAAMTGLLDVAQAIISIDATVVDIEDKNSDTPLNLAAQNSHIDVIKYFIDQGADINTRNKKGLAPLLAFSKKGNLDMVKYLFDKNANVYIADNDGMNFFYYAVQNGHLNIVKYAMSEKDKFEWSNTDNNRRDECPNEECAISHFAVCDAVQFDRIEIVKYFVGTLGNFAICGPLHQAARYGHLDIVKYLVEEEFLSVDGSKTDTPLCYASENGHFTVVQYLVSNGAKVNHDCGNGMTAIDKAITKNHLQVVQFLAANGVDFRRKNSRGTTPFLTAVAENALHIAEYLIREKRQDININEQNVDKDTALHLAVYYKNLQMIKLLIKYGIDVTIRNAYDKTALDIAIDAKFSNIVEYLKTKSGKFRR
modifications: radioactively labeled with 125I by chloramine T procedure in the binding and immunoprecipitation assays; coupled to Sepharose in the affinity experiments
- Kd: 0.16 nM

— patent publication US6630345B2 (New York University, dated 2003)
